The record followed here is patent publication US20190038721A1 (Novo Nordisk, published 2019).

Starred links: 1 amine or outer side, 2 acyl side, 3 side chain; linkers in the order of their positions; H or OH if unused. Non-standard residues stand in square brackets, D forms with d. Groups on a side chain read outwards from the residue. No end group written: not given here. *: point of attachment. 2‑(bis(3-aminopropyl)amino)acetyl = branch point, each 3-aminopropyl arm carries one of the two bracketed chains; 4‑(aminomethyl)cyclohexanecarbonyl = 4-(aminomethyl)cyclohexanecarbonyl linker unit; Undecanoyl(11-OPh(4-COOH)) = O=C(O)c1ccc(OCCCCCCCCCCC(=O)*)cc1; Decanoyl(10-(4-HOOC-PhO)) = O=C(O)c1ccc(OCCCCCCCCCC(=O)*)cc1; Decanoyl(10-O(3-COOH-Ph)) = O=C(O)c1cccc(OCCCCCCCCCC(=O)*)c1; C20 diacid = O=C(O)CCCCCCCCCCCCCCCCCCC(=O)*; γGlu = O=C(O)[C@H](CCC(=O)[*:2])N[*:1]; C14 diacid = O=C(O)CCCCCCCCCCCCC(=O)*; Palmitoyl = CCCCCCCCCCCCCCCC(=O)*; AEEA = NCCOCCOCC(=O)O; Aib = CC(C)(N)C(=O)O

By IC50 is commonly meant the point on the concentration scale where inhibition reaches its midpoint.

The target in test [1] is T1, human GLP-1 receptor (human, UniProt P43220 24-463).
T1 construct: whole, on cells
Kind of test: competitive binding (SPA), displacement of 125I-GLP-1(7-36)NH2 from membranes with human GLP-1 receptor, high HSA (2.0% w/v). Here is the method: (§1) 1. For the receptor binding assay in the presence of low HSA (0.005% (w/v)) 50 μl of the assay buffer was added to each well of an assay plate. Assay continued with step 3. 2. For the receptor binding assay in the presence of high HSA (2% (w/v)) 50 μl of the 8% (w/v) albumin stock was added to each well of an assay plate. Assay continued with step 3. 3. […] 4. Cell membrane aliquots were thawed and diluted to their working concentration. Fifty μl were added to each well in the assay plate. 5. WGA SPA beads were suspended in assay buffer at 20 mg/ml. The suspension was diluted to 10 mg/ml in assay buffer just prior to addition to the assay plate. Fifty μl were added to each well in the assay plate. 6. […] A 25 μl aliquot was reserved for measuring total counts/well. 7. The assay plate was incubated for 2 h at 30° C. 8. The assay plate was centrifuged for 10 min. 9. The assay plate was read in a Packard TopCount NXT instrument.
(§2) Individual replicates were analysed using non-linear regression in GraphPad Prism.
(In general: Displacement assays read how much labelled ligand stays bound in the presence of the test substance.)

Test [2] has as its target T1, human GLP-1 receptor. Description: cell-based or functional assay.
Test [3] has as its target T1, human GLP-1 receptor. Description: competitive binding (SPA), displacement of 125I-GLP-1(7-36)NH2 from membranes with human GLP-1 receptor, low HSA. The procedure: as §1, §2

Molecule HWEGTFTSDVSSYLEEQAAREFIAWLVRGRGK([AEEA-AEEA-γGlu-4‑(aminomethyl)cyclohexanecarbonyl-C20 diacid])GGSK([AEEA-AEEA-γGlu-4‑(aminomethyl)cyclohexanecarbonyl-C20 diacid]) displayed an IC50 in test [1] of 305 nM. In addition, the “EC50 (pM), in vitro potency, CRE luciferase reporter gene assay in BHK cells” value (from here on “EC50 (pM), in vitro potency”) in test [2] was found to be 70.5 pM.

B1: Comparative Example 3A (Example 31 of WO 2012/140117) (peptide)
chain: H[Aib]EGTFTSDVSSYLEEQAARKFIEWLVRGKGEG
modifications: not fully specified (residues 21, 30); also: Lys21 and Lys30 acylated as, structure not given here
In the case of B1, the results for the IC50 in test [3] and in test [1] were 0.26 nM and 134 nM, respectively. Further, the “EC50 (pM), in vitro potency” value in test [2] came to 0.53 pM.
Taken in the same sequence, the figures for HWEGTFTSDVSSYLEGQAAK([AEEA-AEEA-γGlu-Decanoyl(10-(4-HOOC-PhO))])EFIAWLVRGRK([AEEA-AEEA-γGlu-Decanoyl(10-(4-HOOC-PhO))]) were 6.23 nM, 771 nM and 30 pM.
Consider HGEGTFTSDVSSYLEGQAAKEFIAWLVKGRG [[Gly8]-GLP-1-(7-37)-peptide], for which the IC50 is 2.64 nM in test [3] and 0.62 nM in test [1]. Also, the “EC50 (pM), in vitro potency” value in test [2] is 32 pM.

B2: N{Epsilon-37}-[2-[2-[2-[[2-[2-[2-[[(2)-2,6-bis[[2-[2-[2-[[2-[2-[2-[[2-[2-[2-[[2-[2-[2-[[(4S)-4-carboxy-4-[[4-[(19-carboxynonadecanoylamino)methyl]cyclohexanecar … (peptide)
peptide: HWEGTFTSDVSSYLEEQAAREFIAWLVRGRK([AEEA-AEEA-2,6‑diaminohexanoyl-AEEA-AEEA-AEEA-AEEA-γGlu-4‑(aminomethyl)cyclohexanecarbonyl-C20 diacid)+(AEEA-AEEA-AEEA-AEEA-γGlu-4‑(aminomethyl)cyclohexanecarbonyl-C20 diacid])
notes: the claim prints (2S)-2,6-bis; also called 12
B2: in test [1], the IC50 was 51.8 nM. Also, the “EC50 (pM), in vitro potency” value in test [2] was 62.9 pM.
HWEGTFTSDVSSYLEGQAAK([γGlu-Palmitoyl])EFIAWLVRGRG [N{Epsilon-26}-[(4S)-4-carboxy-4-(hexadecanoylamino)butanoyl]-[Trp8,Arg34]-GLP-1-(7-37)-peptide]: the “EC50 (pM), in vitro potency” value in test [2] worked out at 21 pM.
The molecule HWEGTFTSDVSSYLEEQAAREFIAWLVRGK([AEEA-AEEA-AEEA-AEEA-γGlu-C14 diacid])K([AEEA-AEEA-AEEA-AEEA-γGlu-C14 diacid]) showed an IC50 in test [3] of 0.55 nM.
HWEGTFTSDVSSYLEEQAAREFIAWLVRGRK([Lys-AEEA-AEEA-AEEA-AEEA-AEEA-AEEA-γGlu-4‑(aminomethyl)cyclohexanecarbonyl-C20 diacid)+(AEEA-AEEA-AEEA-AEEA-AEEA-AEEA-γGlu-4‑(aminomethyl)cyclohexanecarbonyl-C20 diacid]) (also called 10) registered an IC50 in test [1] of 123 nM. Further, the “EC50 (pM), in vitro potency” value in test [2] is 31.2 pM.
Consider HWEGTFTSDVSSYLEEQAAREFIAWLVRGK([AEEA-AEEA-γGlu-Decanoyl(10-O(3-COOH-Ph))])K([AEEA-AEEA-γGlu-Decanoyl(10-O(3-COOH-Ph))]), for which the IC50 in test [3] came to 0.405 nM.
The same measure, in the same setting: the result for HWEGTFTSDVSSYLEEQAAREFIAWLVRGK([AEEA-AEEA-γGlu-Undecanoyl(11-OPh(4-COOH))])K([AEEA-AEEA-γGlu-Undecanoyl(11-OPh(4-COOH))]) reads 0.535 nM.
Take HWEGTFTSDVSSYLEGQAAKEFIAWLVKGRG (also called 8W GLP-1(7-37)) [[Trp8]-GLP-1-(7-37)-peptide]: the IC50 in test [3] amounted to 0.67 nM; in test [1], 0.208 nM. Besides, in test [2], the “EC50 (pM), in vitro potency” value is 12 pM.
In the case of HPEGTFTSDVSSYLEEQAAREFIAWLVKGRG [[Pro8,Glu22,Arg26]-GLP-1-(7-37)-peptide], the IC50 in test [3] came out at 0.075 nM; in test [1], 0.035 nM. Further, in test [2], the “EC50 (pM), in vitro potency” value came to 0.57 pM.
In test [1], HWEGTFTSDVSSYLEEQAAREFIAWLVRGRK([AEEA-AEEA-2‑(bis(3-aminopropyl)amino)acetyl-AEEA-AEEA-AEEA-AEEA-γGlu-4‑(aminomethyl)cyclohexanecarbonyl-C20 diacid)+(AEEA-AEEA-AEEA-AEEA-γGlu-4‑(aminomethyl)cyclohexanecarbonyl-C20 diacid]) (also called 13) [N{Epsilon-37}-[2-[2-[2-[[2-[2-[2-[[2-[bis[3-[[2-[2-[2-[[2-[2-[2-[[2-[2-[2-[[2-[2-[2-[[(4 …] gave an IC50 of 71.6 nM. The “EC50 (pM), in vitro potency” value in test [2] was found to be 32.1 pM.
For the molecule HWEGTFTSDVSSYLEEQAARK([AEEA-AEEA-γGlu-Decanoyl(10-(4-HOOC-PhO))])FIEWLVRGK([AEEA-AEEA-γGlu-Decanoyl(10-(4-HOOC-PhO))])GEG, the values for the IC50 in test [3] and in test [1] were 1.03 nM and 84.9 nM, respectively. In test [2], the “EC50 (pM), in vitro potency” value was 2.7 pM.
H[Aib]EGTFTSDVSSYLEEQAAREFIAWLVRGRGKGGSK (also: the two extension Lys residues acylated as in the compound) [Comparative Example 9A (Example 3 of WO 2015/000942)]: the IC50 in test [3] is 1.04 nM; in test [1], 235 nM. Further, the “EC50 (pM), in vitro potency” value in test [2] came to 41.3 pM.
For the molecule H[Aib]EGTFTSDVSSYLEEQAAREFIAWLVRGRPK (also: Lys32 acylated as, structure not given here) [Comparative Example 11A (Example 10 of WO 2016/083499)], the IC50 in test [3] came to 0.401 nM; in test [1] it was 34.4 nM. Moreover, in test [2], the “EC50 (pM), in vitro potency” value was found to be 12.5 pM.
